In patent US20140010815A1 (JOSAI UNIVERSITY, published 2014):
No end group written: not given here.

Target: T1, conjugate of a peptide consisting of an amino acid sequence represented by SEQ ID NO: 1 and KLH (also: conjugated to KLH with glutaraldehyde, attachment site not given here)
T1 construct: Synthetic peptide (Fmoc solid phase) chemically conjugated to KLH; used as the immunogen and as the coating antigen in the antibody titer ELISA; also called antigenic substance; not shown: KLH carrier protein (SIGMA), coupled by glutaraldehyde
T1 peptide: SSVLYGGPPSAA
Assay: antibody titer ELISA, plate coated with the peptide-KLH conjugate, hybridoma culture supernatant, fluorescence read-out
Method: A buffer solution containing the above-mentioned antigenic substance (5 mg) (Baicarbonate buffer: 100 mM NaHCO₃—NaOH, pH 9.2 to 9.5, the concentration of the peptide: 1 μg/mL) was added to a 96 well flat bottom plate in an amount of 50 μL per well, and allowed to stand for coating at room temperature for 2 hours. The plate was washed 3 times with wash buffer (PBST), and then blocking buffer (3% skim milk 1% BSA, PBS) was added in an amount of 200 to 250 μL/well to react at 4° C. for one full day, and then washed 3 times. Then the culture supernatant of hybridoma was added in an amount of 100 μL/well, which was allowed to react at 37° C. for 4 hours or at 4° C. for one full day. After the plate was washed 3 times, biotin-labeled anti-mouse IgG (SIGMA) diluted 10000 times with dilution buffer (10 mM Tris-HCl (pH 8.0), 0.9% (W/V) NaCl, 0.05% (W/V) Tween 20) was added in an amount of 50 μL/well, which was allowed to react at room temperature for 2 hours. […] Then washing was performed 6 times, and fluorescent substrate buffer (Attophos substrate buffer, Roche Diagnostics K.K.) was added in an amount of 50 μL/well, and the plate was shaded to allow fluorescence to develop. Fluorescence intensity was measured in CytoFluorII (PerSeptive Biosystems).

B1: monoclonal antibody (SSVmAb) of Example 1, produced by Mouse-Mouse hybridoma SSV-C 93-3 (antibody, IgG1, V domains shown)
VH: EIQLQQSGAELVKPGASVKISCKASGYSFTGYNMNWVKQSHGKSLEWIGNINPYYGSTSYNQKFKGKATLTVDKSSSTAYMQLNSLTSEDSAVYYCARSPYYSNYWRYFDYWGQGTTLTVSS
VL: QIVLSQSPAILSASPGEKVTMTCRASSSVSYMHWYQQKPGSSPKPWIYATSNLASGVPARFSGSGSGTSYSLTISRVEAEDAATYYCQQWSSNPWTFGGGTKLEIK
notes: Mouse monoclonal antibody purified from hybridoma culture supernatant; light chain amplified with a mouse kappa constant region primer
B1: binds.
